No end group written: not given here.

For assay [1], the target named is T1, αvβ6 integrin (human, UniProt P06756 31-1048; P18564 22-788).
T1 construct: whole, on cells; target is the endogenous integrin on αvβ6 positive-control cell lines; also called Integrin alpha-v beta-6
Nature of the assay: flow cytometry, Cy5-polymer conjugate on H2009 / CAPAN-2 cells. The source says:
B. αvβ6 ligand binding (flow cytometric analyses). To assess for specificity of binding of the αvβ6 ligands to the αvβ6 integrin, each αvβ6 ligand or negative control peptide was conjugated to a Cy5-labeled polymer (as described above) and evaluated for binding to cells. […] H2009 (human lung epithelial adenocarcinoma) and CAPAN-2 (human pancreas adenocarcinoma) cells served as the αvβ6 positive-control cell lines. Cells were detached from culturing flasks with Accutase, washed in PBS, and seeded into 5 ml polystyrene round-bottom tubes at 200,000 cells in 200 μl complete media (culturing media with supplements and fetal calf serum). αvβ6 ligand-polymer conjugates or no-ligand-polymer conjugates were added at 5 μg/ml (polymer-Cy5 concentration) to cells, mixed and incubated at 37° C. for 3 h. […] Samples were analyzed on a BD Biosciences Canto II cytometer equipped with a violet (405 nm), blue (488 nm) and red (633 nm) lasers.
Viable cells were initially gated as the SYTOX blue negative population on the C detector with the violet laser. These viable cells were then assessed for conjugate binding/uptake with the red laser as the Mean Fluorescence Intensity (MFI) of the Cy5 fluorophore. […] A specific MFI Ratio (sMFIr) for each αvβ6 ligand was determined by the formula: […]
In general terms: Flow cytometry measures light scatter and fluorescence of single cells or particles in a stream.

Assay [2] has as its target T1, αvβ6 integrin. The experiment in a line: flow cytometry, Cy5-polymer conjugate 5 µg/ml, H2009 cells. The source says: B. αvβ6 ligand binding (flow cytometric analyses). To assess for specificity of binding of the αvβ6 ligands to the αvβ6 integrin, each αvβ6 ligand or negative control peptide was conjugated to a Cy5-labeled polymer (as described above) and evaluated for binding to cells. […] H2009 (human lung epithelial adenocarcinoma) and CAPAN-2 (human pancreas adenocarcinoma) cells served as the αvβ6 positive-control cell lines. Cells were detached from culturing flasks with Accutase, washed in PBS, and seeded into 5 ml polystyrene round-bottom tubes at 200,000 cells in 200 μl complete media (culturing media with supplements and fetal calf serum). αvβ6 ligand-polymer conjugates or no-ligand-polymer conjugates were added at 5 μg/ml (polymer-Cy5 concentration) to cells, mixed and incubated at 37° C. for 3 h. Incubation at 37° C. facilitated ligand/receptor interaction which may result in static binding to the extracellular cell surface and/or internalized ligand/receptor complexes. The mixture was re-suspended at 1 h intervals. Following a 3 h incubation, cells were washed 2× with 4 ml chilled buffer (PBS-2% FCS) and re-suspended in 200 μl buffer containing 10 μM SYTOX blue stain for live/dead cell gating. Samples were analyzed on a BD Biosciences Canto II cytometer equipped with a violet (405 nm), blue (488 nm) and red (633 nm) lasers.
Viable cells were initially gated as the SYTOX blue negative population on the C detector with the violet laser. These viable cells were then assessed for conjugate binding/uptake with the red laser as the Mean Fluorescence Intensity (MFI) of the Cy5 fluorophore. Data analyses were performed with FlowJo v10.1 software. A specific MFI Ratio (sMFIr) for each αvβ6 ligand was determined by the formula: […]

T1 sequence (P06756 31-1048, chain 1 of 2): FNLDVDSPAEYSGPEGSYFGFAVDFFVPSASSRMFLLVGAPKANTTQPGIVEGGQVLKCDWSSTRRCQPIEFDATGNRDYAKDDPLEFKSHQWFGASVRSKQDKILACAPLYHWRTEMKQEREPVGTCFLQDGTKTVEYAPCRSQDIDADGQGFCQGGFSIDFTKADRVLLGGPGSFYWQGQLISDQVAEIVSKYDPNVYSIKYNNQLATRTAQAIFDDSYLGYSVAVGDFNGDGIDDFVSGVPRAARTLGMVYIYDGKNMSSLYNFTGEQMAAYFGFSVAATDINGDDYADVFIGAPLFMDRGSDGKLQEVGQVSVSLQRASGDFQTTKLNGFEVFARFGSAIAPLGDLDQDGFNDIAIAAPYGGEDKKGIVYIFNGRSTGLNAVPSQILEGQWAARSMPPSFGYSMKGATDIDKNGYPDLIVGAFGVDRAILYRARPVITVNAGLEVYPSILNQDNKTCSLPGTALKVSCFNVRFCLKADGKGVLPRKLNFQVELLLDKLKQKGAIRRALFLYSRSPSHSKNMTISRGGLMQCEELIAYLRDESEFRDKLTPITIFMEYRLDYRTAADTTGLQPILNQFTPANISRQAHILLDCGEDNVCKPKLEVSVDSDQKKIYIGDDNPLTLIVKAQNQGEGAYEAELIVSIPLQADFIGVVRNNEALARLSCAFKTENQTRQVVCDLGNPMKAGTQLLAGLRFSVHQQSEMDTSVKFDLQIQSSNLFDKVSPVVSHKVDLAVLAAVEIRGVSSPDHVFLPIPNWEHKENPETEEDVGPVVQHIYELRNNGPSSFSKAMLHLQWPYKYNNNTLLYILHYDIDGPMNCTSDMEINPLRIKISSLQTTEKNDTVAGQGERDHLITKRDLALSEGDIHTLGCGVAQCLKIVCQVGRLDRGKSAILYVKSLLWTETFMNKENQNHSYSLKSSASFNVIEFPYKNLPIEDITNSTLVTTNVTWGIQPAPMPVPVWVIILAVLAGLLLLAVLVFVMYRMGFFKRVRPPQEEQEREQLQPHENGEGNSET
T1 sequence (P18564 22-788, chain 2 of 2): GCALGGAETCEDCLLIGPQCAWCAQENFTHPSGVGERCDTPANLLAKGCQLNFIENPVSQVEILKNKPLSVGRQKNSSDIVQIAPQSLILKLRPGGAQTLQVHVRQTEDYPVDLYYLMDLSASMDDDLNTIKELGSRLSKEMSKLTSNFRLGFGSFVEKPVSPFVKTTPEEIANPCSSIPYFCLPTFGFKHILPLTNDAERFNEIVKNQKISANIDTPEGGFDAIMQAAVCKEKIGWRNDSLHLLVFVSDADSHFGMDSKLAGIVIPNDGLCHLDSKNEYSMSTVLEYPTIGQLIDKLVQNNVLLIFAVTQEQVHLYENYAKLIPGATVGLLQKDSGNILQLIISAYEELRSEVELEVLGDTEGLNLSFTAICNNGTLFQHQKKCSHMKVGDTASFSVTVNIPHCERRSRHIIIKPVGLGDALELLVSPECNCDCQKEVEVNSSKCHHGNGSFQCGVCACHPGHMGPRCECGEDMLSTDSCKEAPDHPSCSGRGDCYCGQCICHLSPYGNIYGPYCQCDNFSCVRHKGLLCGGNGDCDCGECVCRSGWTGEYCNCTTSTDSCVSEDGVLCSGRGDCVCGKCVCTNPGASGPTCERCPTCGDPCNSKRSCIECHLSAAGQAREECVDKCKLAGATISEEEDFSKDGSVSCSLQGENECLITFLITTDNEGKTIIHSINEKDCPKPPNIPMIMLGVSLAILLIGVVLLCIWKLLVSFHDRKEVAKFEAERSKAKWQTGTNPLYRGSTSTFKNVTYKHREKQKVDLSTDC

B1: RGELATLRQL (RGE control) (peptide)
peptide: RGELATLRQL
modifications: not fully specified; printed as RGELATLRQL (RGE control)
notes: Negative control; Tested as ligand-(PEG)8-K-HyNic conjugated to Cy5-labelled 1170-100B polymer
For the molecule B1, the binding result in the assay with αvβ6 integrin [1] is on record as “no binding (tested: 5 µg/ml (polymer-Cy5 concentration))”. Further, in the assay with αvβ6 integrin [2], the “MFI (specific MFI ratio, sample/no-ligand)” value was 0.99 ratio.

For the origin of these results see US20220024975A1 (ARROWHEAD PHARMACEUTICALS, published 2022).
